In the assay the target is biotin-15d-PGJ2. As to the kind of experiment: biotin pull-down (avidin) with western-blot quantification (ImageJ). Conditions: 293T cells transfected with FLAG-eIF4A1s.

As for FLAG-eIF4A1 (from UniProt P60842) C264S, the ratio to parent was found to be 0.17. Next, “FLAG-eIF4A1 (from UniProt P60842) C264S; R295A”: 0.03; FLAG-eIF4A1 (from UniProt P60842) R295A: 2.35.

For the origin of these results see paper PMC6262856.
